Changes are numbered by the printed parent chain.
What was measured:
[1] = system: T1, dCas12j-8 D313R D313R;D369A;E567A;D658A (bacteriophage (metagenome)); details: HEK293T cells; panel 1c (compare within a panel only); scale: mean GFP / mean GFP of wild type, printed, no background subtraction
T1 sequence: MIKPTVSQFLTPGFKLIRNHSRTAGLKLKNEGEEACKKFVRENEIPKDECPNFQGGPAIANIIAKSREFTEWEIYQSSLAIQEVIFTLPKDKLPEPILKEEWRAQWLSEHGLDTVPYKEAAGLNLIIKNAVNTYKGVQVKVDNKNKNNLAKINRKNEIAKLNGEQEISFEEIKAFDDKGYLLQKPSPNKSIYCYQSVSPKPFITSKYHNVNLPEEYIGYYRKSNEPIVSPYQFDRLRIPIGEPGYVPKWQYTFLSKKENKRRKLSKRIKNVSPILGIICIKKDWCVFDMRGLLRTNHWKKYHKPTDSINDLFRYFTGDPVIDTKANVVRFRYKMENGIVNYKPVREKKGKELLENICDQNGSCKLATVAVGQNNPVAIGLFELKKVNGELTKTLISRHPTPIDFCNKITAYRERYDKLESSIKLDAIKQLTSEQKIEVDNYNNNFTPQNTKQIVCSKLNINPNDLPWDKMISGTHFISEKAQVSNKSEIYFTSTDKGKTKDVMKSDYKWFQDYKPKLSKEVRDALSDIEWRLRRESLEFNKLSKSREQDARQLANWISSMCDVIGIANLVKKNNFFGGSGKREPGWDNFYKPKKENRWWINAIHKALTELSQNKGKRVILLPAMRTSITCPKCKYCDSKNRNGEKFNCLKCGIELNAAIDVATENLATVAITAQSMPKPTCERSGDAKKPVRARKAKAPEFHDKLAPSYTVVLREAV

[2] = system: T2, dCas12j-8 E258R+E547R E258R;E547R;D369A;E567A;D658A (bacteriophage (metagenome)); details: HEK293T cells; panel 1d (compare within a panel only); scale: mean GFP / mean GFP of wild type, printed, no background subtraction
T2 sequence: T1 sequence with E258R, R313D, E547R

[3] = system: T3, dCas12j-8 E119R E119R;D369A;E567A;D658A (bacteriophage (metagenome)); details: HEK293T cells; panel 1c (compare within a panel only); scale: mean GFP / mean GFP of wild type, printed, no background subtraction
T3 sequence: T1 sequence with E119R, R313D

Q: What does the source list for “CUUUCAAGACUAAUAGAUUGCUCCUUACGAGGAGACACUCCCUAUCAGUGAUAGAG / TTNACTCCCTATCAGTGATAGAG / CTCTATCACTGATAGGGAGTNAA [TetO]”?
A: binding signal [1]: 1.59; binding signal [2]: 3.03; binding signal [3]: 1.08
